Test results taken from publication doi:10.1101/2025.08.03.668247, “The structure of Egalitarian in complex with the K10 mRNA localization signal reveals a modular binding surface required for function”.

How the values were obtained:
Assay in all cases: fluorescence anisotropy; FA: 20 mM HEPES-NaOH pH 7.5, 100 mM NaCl, 10% glycerol, 20 C, 10 nM FAM-RNA; competition: 150 nM Egl512-819 + 10 nM FAM-K10 TLS, same buffer
Conditions in all cases: protein: recombinant; tags: N-terminal GST; label: 5'-6-FAM; hairpin with two bulges
Egl1-819 = target: T1, Egl1-819 (Drosophila melanogaster, UniProt Q9W1K4 1-819)
T1 sequence: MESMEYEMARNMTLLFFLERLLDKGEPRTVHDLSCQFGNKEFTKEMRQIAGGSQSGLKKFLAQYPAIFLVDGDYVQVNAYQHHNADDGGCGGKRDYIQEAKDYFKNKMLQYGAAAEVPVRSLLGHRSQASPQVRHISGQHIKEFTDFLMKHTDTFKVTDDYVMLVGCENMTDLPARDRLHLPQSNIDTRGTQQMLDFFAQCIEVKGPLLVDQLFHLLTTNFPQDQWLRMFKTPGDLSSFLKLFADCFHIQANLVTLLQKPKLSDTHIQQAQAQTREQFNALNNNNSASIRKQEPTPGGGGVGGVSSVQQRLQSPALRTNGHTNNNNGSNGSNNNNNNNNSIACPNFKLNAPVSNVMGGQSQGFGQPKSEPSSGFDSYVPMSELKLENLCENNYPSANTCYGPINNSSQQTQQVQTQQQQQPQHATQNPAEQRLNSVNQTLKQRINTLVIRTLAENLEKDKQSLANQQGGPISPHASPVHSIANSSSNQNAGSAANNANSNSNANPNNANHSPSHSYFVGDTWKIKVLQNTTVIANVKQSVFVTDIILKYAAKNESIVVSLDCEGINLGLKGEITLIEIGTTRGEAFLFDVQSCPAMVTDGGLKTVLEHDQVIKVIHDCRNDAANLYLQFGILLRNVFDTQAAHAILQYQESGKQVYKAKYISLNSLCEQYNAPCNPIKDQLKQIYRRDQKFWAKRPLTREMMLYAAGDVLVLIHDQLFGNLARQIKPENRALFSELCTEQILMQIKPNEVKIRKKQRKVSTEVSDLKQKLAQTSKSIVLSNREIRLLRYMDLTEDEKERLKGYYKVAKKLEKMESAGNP

K751E = target: T2, K751E (Drosophila melanogaster, UniProt Q9W1K4 512-819, K751E)
T2 sequence: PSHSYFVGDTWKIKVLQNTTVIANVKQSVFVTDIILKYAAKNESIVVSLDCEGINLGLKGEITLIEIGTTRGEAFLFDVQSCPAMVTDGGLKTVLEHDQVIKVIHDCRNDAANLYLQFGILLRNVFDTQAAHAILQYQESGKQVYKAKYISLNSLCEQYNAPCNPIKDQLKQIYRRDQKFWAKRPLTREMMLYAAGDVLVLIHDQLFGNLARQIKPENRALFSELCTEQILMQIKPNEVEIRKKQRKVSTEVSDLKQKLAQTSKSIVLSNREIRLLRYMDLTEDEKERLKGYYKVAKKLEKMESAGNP

K678E = target: T3, K678E (Drosophila melanogaster, UniProt Q9W1K4 512-819, K678E)
T3 sequence: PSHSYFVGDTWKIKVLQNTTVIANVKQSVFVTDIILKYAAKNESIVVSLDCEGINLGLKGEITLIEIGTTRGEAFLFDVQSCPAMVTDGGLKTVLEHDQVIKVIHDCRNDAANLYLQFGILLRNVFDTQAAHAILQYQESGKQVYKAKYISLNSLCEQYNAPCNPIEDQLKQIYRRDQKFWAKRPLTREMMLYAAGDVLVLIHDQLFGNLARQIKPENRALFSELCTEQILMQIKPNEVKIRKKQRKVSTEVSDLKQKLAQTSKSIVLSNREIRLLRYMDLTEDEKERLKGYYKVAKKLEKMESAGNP

Y685A = target: T4, Y685A (Drosophila melanogaster, UniProt Q9W1K4 512-819, Y685A)
T4 sequence: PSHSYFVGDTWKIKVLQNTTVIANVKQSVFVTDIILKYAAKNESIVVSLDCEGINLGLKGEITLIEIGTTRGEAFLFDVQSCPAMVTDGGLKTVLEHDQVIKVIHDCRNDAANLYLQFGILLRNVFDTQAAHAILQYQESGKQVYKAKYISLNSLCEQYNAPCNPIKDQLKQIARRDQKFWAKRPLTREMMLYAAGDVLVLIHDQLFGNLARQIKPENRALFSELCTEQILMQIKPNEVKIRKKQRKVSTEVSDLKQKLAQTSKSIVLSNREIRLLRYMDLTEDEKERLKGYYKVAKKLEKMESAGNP

Egl512-1004 = target: T5, Egl512-1004 (Drosophila melanogaster, UniProt Q9W1K4 512-1004)
T5 sequence: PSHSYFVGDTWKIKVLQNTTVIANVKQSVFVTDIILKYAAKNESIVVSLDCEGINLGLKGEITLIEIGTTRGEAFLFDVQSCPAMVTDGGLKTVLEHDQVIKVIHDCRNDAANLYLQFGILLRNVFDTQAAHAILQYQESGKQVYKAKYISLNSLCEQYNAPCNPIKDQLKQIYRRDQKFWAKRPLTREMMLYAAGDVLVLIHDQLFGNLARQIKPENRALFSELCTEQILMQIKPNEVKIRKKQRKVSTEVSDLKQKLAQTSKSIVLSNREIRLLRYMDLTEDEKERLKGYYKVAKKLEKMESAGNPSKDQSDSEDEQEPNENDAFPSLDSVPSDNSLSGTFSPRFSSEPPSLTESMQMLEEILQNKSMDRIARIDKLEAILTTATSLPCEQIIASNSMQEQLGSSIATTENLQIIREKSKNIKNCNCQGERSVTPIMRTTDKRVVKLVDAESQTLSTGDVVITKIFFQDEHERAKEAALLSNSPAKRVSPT

B1: K10 TLS (FAM) (structured_RNA)
RNA: CUUGAUUGUAUUUUUAAAUUAAUUCUUAAAAACUACAAAUUAAG
- Kd (Egl1-819): 127 ± 7 nM
- Kd (K751E): 139 ± 28 nM
- Kd (K678E): 195 ± 9 nM
- Kd (Y685A): 221 ± 11 nM
- Kd (Egl512-1004): 144 ± 6 nM
